As a reminder, the Kd is the constant that tells how readily two partners part at equilibrium. As a reminder, the koff is the rate constant with which the complex falls apart. What is called kon is a measure of how fast the partners come together.

Drawing on US20140302020A1 (ALETHIA BIOTHERAPEUTICS, published 2014), this text covers Kd, koff and kon for seven molecules.

Assay [1] concerns the target T1, recombinant monomeric human clusterin (human, UniProt P10909 23-449).
T1 construct: Tags and processing into alpha and beta chains are not described; also called recombinant human clusterin; immobilized clusterin
As to the kind of experiment: SPR (BIAcore 3000), recombinant monomeric human clusterin amine-coupled to a CM3 chip, full length antibody injected. As to the method:
(§1) HBST (10 mM Hepes pH 7.4, 135 mM NaCl, 3.4 mM EDTA, 0.005% Tween 20) was used as running buffer for all BIAcore experiments. Recombinant monomeric clusterin was immobilized on a CM3 chip with normal amine coupling method at a flow of 5 μl/min. Surface was activated with 35 μl of a mixture of 50 mM NHS/0.2M EDC. Clusterin in 10 mM Na-acetate pH 4.5 was injected until a desired amount was captured (below 60RU). Unreacted esters were deactivated with 35 μl of 1M ethanolamine hydrochloride-NaOH pH8.5. A control surface was prepared by injecting NHS/EDC and ethanolamine in the same manner.
(§2) Kinetics analysis was conducted at a flow of 50 μl/min. Full length antibodies (mouse or humanized) or Fab were diluted in HBST. Concentration range was from 1.953-31.25 nM for the full length antibodies and 15.625-250 nM for the Fab. Each concentration was injected over the clusterin and a control surface for 5 min followed with a 5 min dissociation wash. The clusterin surface was regenerated between each antibody injection with 50 μl of 20 mM HCl.
Background: Surface plasmon resonance follows binding to a sensor surface in real time, without labels.

Assay [2] deals with T1, recombinant monomeric human clusterin. The assay can be described thus: SPR (BIAcore 3000), recombinant monomeric human clusterin amine-coupled to a CM3 chip, Fab injected. The protocol: as §1, §2
Assay [3] has the same target. As to the kind of experiment: SPR (BIAcore 3000), recombinant monomeric human clusterin amine-coupled to a CM3 chip, full length antibody injected. The protocol:
(§3) The purpose of these investigations is to determine the kinetics parameters of anti-clusterin antibodies. In particular, to determine whether the humanization of the 16B5 and 21B12 anti-clusterin monoclonal antibody affects the kinetics parameters of its binding to human clusterin. To this end, a kinetic analysis method was developed using the BIAcore 3000. Human clusterin was immobilized on a sensor chip. Full length antibodies or Fab fragments were injected and allowed to interact with the immobilized clusterin. This example described the exemplary antibody 16B5 but the 21B12 exemplary antibody was prepared and tested in a similar manner.
as §1, §2
The source holds these as a separate data set.

Assay [4] shares this target. The assay can be described thus: SPR (BIAcore 3000), recombinant monomeric human clusterin amine-coupled to a CM3 chip, Fab injected. The protocol:
as §3, §1, §2
This is another data set of the same source.

T1 sequence (P10909 23-449 limits assumed): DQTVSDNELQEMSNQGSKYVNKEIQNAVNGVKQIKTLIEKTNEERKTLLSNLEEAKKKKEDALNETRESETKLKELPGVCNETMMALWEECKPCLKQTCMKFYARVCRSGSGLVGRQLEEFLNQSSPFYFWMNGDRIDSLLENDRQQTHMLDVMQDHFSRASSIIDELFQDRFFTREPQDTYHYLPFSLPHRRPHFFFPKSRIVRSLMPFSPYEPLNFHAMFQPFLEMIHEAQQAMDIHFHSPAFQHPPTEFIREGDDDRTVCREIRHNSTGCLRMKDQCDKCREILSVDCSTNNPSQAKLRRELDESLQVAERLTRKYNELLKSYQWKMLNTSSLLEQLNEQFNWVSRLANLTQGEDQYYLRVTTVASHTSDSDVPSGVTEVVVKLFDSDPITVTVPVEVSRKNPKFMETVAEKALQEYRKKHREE

B1: humanized 16B5 anti-clusterin antibody (full length, human IgG2) (antibody, V domains shown)
VH: QVQLVQSGAEVKKPGATVKISCKVSGFNIKDIYMHWVQQAPGKGLEWMGRIDPAYGNTKYDPKFQGRVTITADTSTDTAYMELSSLRSEDTAVYYCARRYDTAMDYWGQGTLVTVSS
VL: DIVMTQSPDSLAVSLGERATINCKSSQSLLNSRTRKNYLAWYQQKPGQPPKLLIYWASTRESGVPDRFSGSGSGTDFTLTISSLQAEDVAVYYCKQSYNLWTFGQGTKLEIKV
notes: also called h16B5; H16B5
Turning to B1, in assay [1], the Kd stood at 4.49 nM, the off-rate (koff) turned out to be 0.0015 s⁻¹ and the association rate constant (kon) stood at 345000 M⁻¹ s⁻¹.

B2: humanized 16B5 Fab (Fab, V domains shown)
VH: B1 VH
VL: DIVMTQSPDSLAVSLGERATINCKSSQSLLNSRTRKNYLAWYQQKPGQPPKLLIYWASTRESGVPDRFSGSGSGTDFTLTISSLQAEDVAVYYCKQSYNLWTFGQGTKLEIK
notes: The preparation still held some F(ab')2; also called HH16B5 Fab; HH 16B5 Fab
B2: in assay [2], the dissociation constant (Kd) turned out to be 17.2 nM, the koff amounted to 0.0027 s⁻¹ and the on-rate constant (kon) stood at 159000 M⁻¹ s⁻¹.

B3: humanized 21B12 anti-clusterin antibody (full length, human IgG2) (antibody, V domains shown)
VH: QVQLVQSGSELKKPGASVKVSCKASGYTFTNYGMHWVRQAPGQGLEWMGWINTYTGEPTYADDFKGRFVFSLDTSVSTAYLQISSLKAEDTAVYYCARDGFLYFFDYWGQGTLVTVSS
VL: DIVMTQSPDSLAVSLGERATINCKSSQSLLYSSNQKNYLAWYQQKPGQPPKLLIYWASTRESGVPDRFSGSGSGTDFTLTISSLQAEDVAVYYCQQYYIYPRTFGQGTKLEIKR
notes: also called HH21B12
Take B3: in assay [3], the dissociation constant (Kd) worked out at 2.23 nM, the koff stood at 0.00083 s⁻¹ and the kon is 374000 M⁻¹ s⁻¹.

B4: 21B12 Fab (Fab, V domains shown)
VH: QIQLVQSGPELKKPGETVKISCKASGYTFTNYGMHWVKQAPGKGLKWMGWINTYTGEPTYADDFKGRFAFSLETSASTAYLQINNLKNEDTATYFCARDGFLYFFDYWGQGTTLTVSS
VL: DIVMSQSPSSLAVSVGEKVTMSCKSSQSLLYSSNQKNYLAWYQQRPGQSPKLLIYWASTRESGVPDRFTGSGSGTDFTLTISSVKAEDLAVYYCQQYYIYPRTFGGGTKLEIK
notes: also called mouse 21B12 Fab; Fab fragment of the murine 21B12 anti-clusterin antibody
In the case of B4, in assay [4], the Kd stood at 25.3 nM, the koff was determined as 0.00352 s⁻¹ and the on-rate (kon) turned out to be 215000 M⁻¹ s⁻¹.

B5: mouse 21B12 anti-clusterin monoclonal antibody (full length) (antibody, V domains shown)
VH: B4 VH
VL: B4 VL
notes: also called murine 21B12; parent mouse 21B12
For the molecule B5, in assay [3], the Kd was 5.09 nM, the koff worked out at 0.0015 s⁻¹ and the kon was 362000 M⁻¹ s⁻¹.

B6: mouse 16B5 Fab (Fab, V domains shown)
VH: EVQLQQSGAELVKPGASVRLSCTTSGFNIKDIYMHWVKQRPEQGLEWIGRIDPAYGNTKYDPKFQGKATITADTSSNTAYLQLSSLTSEDTAVYYCARRYDTAMDYWGQGTSVTVSS
VL: DIVMSQSPSSLAVSAGEKVTMSCKSSQSLLNSRTRKNYLAWYQQKPGQSPKLLIYWASTRESGVPDRFTGSGSGTDFTLTISSVQAEDLAVYYCKQSYNLWTFGGGTKLEFK
notes: also called Fab mouse antibody
Turning to B6, in assay [2], the dissociation constant Kd is 41.6 nM, the koff was 0.003 s⁻¹ and the kon was determined as 74100 M⁻¹ s⁻¹.

B7: mouse 16B5 anti-clusterin monoclonal antibody (full length) (antibody, V domains shown)
VH: B6 VH
VL: B6 VL
notes: Full-length mouse IgG purified from the original hybridoma; also called murine 16B5; hybridoma 16B5
B7: in assay [1], the dissociation constant (Kd) came to 6.64 nM, the off-rate (koff) was determined as 0.0017 s⁻¹ and the kon amounted to 329000 M⁻¹ s⁻¹.
